Paper PMC4504005 (2015)
“And” between values parts separate entries of the source, which are not always exact repeats. Equal values may be shown once. Ends that are not written are not given here.

Columns and labels:
[1] = target: MBP-RAMP1 ECD-(GSA)3-CLR ECD-H6 tethered fusion protein (UniProt O60894 27-118)
[2] = target: wild-type tethered MBP-RAMP2 ECD-CLR ECD fusion protein (UniProt O60895 43-143)
[3] = target: MBP-RAMP2 ECD [L106R]-(GSA)3-CLR ECD-H6 tethered fusion protein (UniProt O60895 43-143, L106R)

| Binder | IC50 [1] [µM] | IC50 [2] [µM] | IC50 [3] |
| --- | --- | --- | --- |
| FVPTDVGPFAY-NH2 [CGRPmut [F37Y]] | 0.575 | – | – |
| TVQKLAHQIYQFTDKDKDNVAPRSKISPQGY-NH2 [AM(22–52)NH2] | – | 4.79 | 5.37 µM and 12.9 µM |
